Data published in publication PMC6141012 (Nature, 2018).

T1: Snu71 (S. cerevisiae, UniProt P53207 1-620)
T1 sequence (looked up): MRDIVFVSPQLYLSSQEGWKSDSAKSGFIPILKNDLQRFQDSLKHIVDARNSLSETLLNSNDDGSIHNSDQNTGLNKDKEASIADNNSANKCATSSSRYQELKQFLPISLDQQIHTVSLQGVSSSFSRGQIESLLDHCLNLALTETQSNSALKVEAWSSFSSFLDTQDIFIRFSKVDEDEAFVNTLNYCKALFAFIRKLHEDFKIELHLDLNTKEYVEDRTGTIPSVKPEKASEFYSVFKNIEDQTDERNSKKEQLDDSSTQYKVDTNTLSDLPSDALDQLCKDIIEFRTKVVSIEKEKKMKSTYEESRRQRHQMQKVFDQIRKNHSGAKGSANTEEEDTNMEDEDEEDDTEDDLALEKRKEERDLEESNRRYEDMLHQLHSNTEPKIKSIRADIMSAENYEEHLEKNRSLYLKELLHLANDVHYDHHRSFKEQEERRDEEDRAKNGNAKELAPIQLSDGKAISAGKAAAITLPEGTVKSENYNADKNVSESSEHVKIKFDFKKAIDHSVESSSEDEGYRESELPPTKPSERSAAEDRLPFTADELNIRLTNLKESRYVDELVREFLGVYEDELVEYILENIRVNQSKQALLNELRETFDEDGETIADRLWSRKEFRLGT

T2: Prp39 (S. cerevisiae, UniProt P39682 1-629)
T2 sequence: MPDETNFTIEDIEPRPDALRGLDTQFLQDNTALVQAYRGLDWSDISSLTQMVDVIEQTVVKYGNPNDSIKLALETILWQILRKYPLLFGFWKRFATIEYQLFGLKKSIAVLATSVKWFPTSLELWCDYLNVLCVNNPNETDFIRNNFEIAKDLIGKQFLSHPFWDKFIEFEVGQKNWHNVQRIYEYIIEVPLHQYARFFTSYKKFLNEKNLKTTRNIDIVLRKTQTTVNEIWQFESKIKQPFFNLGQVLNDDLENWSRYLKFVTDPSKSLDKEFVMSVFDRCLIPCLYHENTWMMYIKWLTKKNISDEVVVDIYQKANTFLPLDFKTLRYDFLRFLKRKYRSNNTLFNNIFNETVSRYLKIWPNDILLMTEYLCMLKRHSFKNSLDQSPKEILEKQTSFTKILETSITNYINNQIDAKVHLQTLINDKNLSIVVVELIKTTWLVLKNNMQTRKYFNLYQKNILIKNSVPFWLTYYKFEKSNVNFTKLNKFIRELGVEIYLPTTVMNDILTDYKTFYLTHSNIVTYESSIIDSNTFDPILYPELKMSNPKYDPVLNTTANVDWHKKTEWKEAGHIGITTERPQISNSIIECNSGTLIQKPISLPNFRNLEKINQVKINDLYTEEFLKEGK

B1: Snu56 (natural protein, S. cerevisiae, UniProt Q03782 1-492, looked up)
chain: MRPRRRGLAYHHTKPKGQLSQGHYPTTSNDGQRRKVGNSEAFQSFDIWKNLDRIRSTKKNAGQFIKGSLLILPMRTEDKQQFDECMDELHKYISKDILRCYPQKEQKDEGMLFYIVLKDFNILDSCFVLSVLLAFQKRLWMAPSEKSYFRVPKNINLTGSFYLPKNIETGRGHIITSYRREQPSSSIVEVGFNVVPDFQQFQVKACHVSKFMNELSNFFSQVEFGKCEANVINYFKREYNRTYSQISLALYELPLIGDGLFDIKSYISKTRPIIETSKAQMIKHISEMKAYNEISGLQGDQFPRQQRPLSNSPSSNSISSSQTIEAGATSYQTQPQRHAVNKPSNVLNSSNRHSGPKTFEDGRYSEGNKPGFMTQDEIKQHCIGTIKASMDAVKKKSSYQILKTYVRCPRQNYIDIVYQNLNDLRSKTNCNIVVLNLNNLHESQMWLESLNTTNYTIFAQAPHPSTIRVISIGGVGEYIVKALELILNILEH
B2: Nam8 (natural protein, S. cerevisiae, UniProt Q00539 1-523, looked up)
chain: MSYKQTTYYPSRGNLVRNDSSPYTNTISSETNNSSTSVLSLQGASNVSLGTTGNQLYMGDLDPTWDKNTVRQIWASLGEANINVRMMWNNTLNNGSRSSMGPKNNQGYCFVDFPSSTHAANALLKNGMLIPNFPNKKLKLNWATSSYSNSNNSLNNVKSGNNCSIFVGDLAPNVTESQLFELFINRYASTSHAKIVHDQVTGMSKGYGFVKFTNSDEQQLALSEMQGVFLNGRAIKVGPTSGQQQHVSGNNDYNRSSSSLNNENVDSRFLSKGQSFLSNGNNNMGFKRNHMSQFIYPVQQQPSLNHFTDPNNTTVFIGGLSSLVTEDELRAYFQPFGTIVYVKIPVGKCCGFVQYVDRLSAEAAIAGMQGFPIANSRVRLSWGRSAKQTALLQQAMLSNSLQVQQQQPGLQQPNYGYIPSSTCEAPVLPDNNVSSTMLPGCQILNYSNPYANANGLGSNNFSFYSNNNATNTQATSLLADTSSMDLSGTGGQQVIMQGSEAVVNSTNAMLNRLEQGSNGFMFA
B3: Yhc1 (natural protein, S. cerevisiae, UniProt Q05900 1-231, looked up)
chain: MTRYYCEYCHSYLTHDTLSVRKSHLVGKNHLRITADYYRNKARDIINKHNHKRRHIGKRGRKERENSSQNETLKVTCLSNKEKRHIMHVKKMNQKELAQTSIDTLKLLYDGSPGYSKVFVDANRFDIGDLVKASKLPQRANEKSAHHSFKQTSRSRDETCESNPFPRLNNPKKLEPPKILSQWSNTIPKTSIFYSVDILQTTIKESKKRMHSDGIRKPSSANGYKRRRYGN
B4: Prp42 (natural protein)
chain: MDKYTALIHDENFSTLTLNVSRYPKSLAYWEKLLNYIVKASAPICKSTEPQLLKLIRCTYSSMLNEFPYLENYYIDFALLEYKLGNVSMSHKIFQRGLQAFNQRSLLLWTSYLKFCNNVISHQKQLFKKYETAEEYVGLHFFSGEFWDLYLEQISSRCTSSKKYWNVLRKILEIPLHSFSKFYALWLQRIDDIMDLKQLSQLTSKDELLKKLKIDINYSGRKGPYLQDAKKKLKKITKEMYMVVQYQVLEIYSIFESKIYINYYTSPETLVSSDEIETWIKYLDYTITLQTDSLTHLNFQRALLPLAHYDLVWIKYSKWLINSKNDLLGAKNVLLMGLKFSLKKTEIIKLLYSVICKLNEYVLLRNLLEKIESSYSDNVENVDDFEIFWDYLQFKTFCQNSLYSSRYSDSQSNGLLNKELFDKVWKRLSCKEKKSGQEILLNNLVQFYSKDTVEFVEKNIFQKIIEFGWEYYLQNGMFWNCYCRLIYFDTSRSYLDKRQYIVRKIWPQIDKKFAQSVLPSLTEFCESYFPEEMDTLEEMFTEEP
B5: Lea1 (natural protein, S. cerevisiae, UniProt Q08963 1-238, looked up)
chain: MKFTPSIVIDAPQYYVDHFNGKYNVDKCVILRDLQLETDSESMPSSLKHLTKPTHILDLTNNDLIMIPDLSRRDDIHTLLLGRNNIVEVDGRLLPMNVQNLTLSNNSIRRFEDLQRLRRAPRTLKNLTLIGNQVCHLANYREHVLRLVPHLETLDFQNVTAEERKSAMSFPRQADGDTLGPVNTAIRDNGSRDKTMEIMNLVVSKMTVERRNELKKQLAEATSLEEIARLEKLLSGGV

Experiments:
Experiment in all cases: cryo-EM structure
[1] = molecular target: T1, Snu71
[2] = molecular target: B4
[3] = molecular target: T2, Prp39
[4] = molecular target: B2

Binder: B1
- binding result [1]: binds

Binder: B2
- binding result [2]: binds
- binding result [3]: binds

Binder: B3
- binding result [4]: binds
- binding result [2]: binds
- binding result [3]: binds

Binder: B4
- binding result [1]: binds
- binding result [3]: binds

Binder: B5
- binding result [3]: binds
